Data: patent US20230001007A1, “Glycan-Interacting Compounds and Methods of Use” (Seagen Inc., priority 2017, published 2023)

Legend:
[1] = system: CRC Tissue Microarray (TMA) cores; assay: CRC Tissue Microarray staining for STn with and without neuraminidase; assay type: binding
From the text: Further, a CRC Tissue Microarray (TMA) (NBP2-30214; Novus Bio, Littleton, Colo.) was stained for STn expression. The array consists of 59 cores with and without a neuraminidase (sialidase) enzyme treatment. Neuraminidase specifically cleaves terminal sialic acids and destroys STn antigen present on the tissue.

[2] = system: LS174T; assay: STn expression on CRC line by flow cytometry using anti-STn antibodies; assay type: cell-based; details: detected using mSIA103
Procedure: (§1) Mouse antibodies were characterized for in vitro and in vivo efficacy in breast, colon and ovarian cancer models. The antibodies were used to identify CRC cell lines that express STn on the surface. Five CRC lines were incubated in vitro and grown to confluency. % STn expression was determined by flow cytometry using anti-STn antibodies. Approximately 30-70% of cultured SW403, COL0205 and LS174T cells naturally expressed STn on the surface (as detected using mSIA103), while HT29 and RKO had very little to no detectable STn (as detected using hSIA101) on their cell surface (see Table 6).

[3] = system: COLO205; assay: as above; assay type: cell-based; details: detected using mSIA103
Procedure: as §1

[4] = system: SW403; assay: as above; assay type: cell-based; details: detected using mSIA103
Procedure: as §1

B1: mSIA103: mouse IgG2a anti-STn antibody, VH SEQ ID NO: 5, VL SEQ ID NO: 6; variable domains from 3F1 IgG1 antibodies (antibody, V domains shown)
VH: QVQLQQSDAELVKPGASVKISCKASGYTFTDHAIHWVKQKPEQGLDWIGYISPGNGDIKYNEKFKDKVTLTADKSSSTACMHLNSLTSEDSAVYFCKRSLLALDYWGQGTTLTVSS
VL: DIVMTQSHKFMSTSVGDRVSITCKASQDVGTNIAWYQQKPGRSPKVLIYSASTRHTGVPDRFTGSGSGTDFTLTISNVQSEDLTDYFCQQYSSFPLTFGVGTKLELK
modifications: mouse IgG2a constant regions
notes: variable domains from 3F1 IgG1 antibodies
With B1 the “staining on normal colon” value ([1]; 8 cores) was “restricted to crypt and surface mucosa”, the “staining after neuraminidase treatment” value ([1]; 250 mU/mL neuraminidase, all 45 positive cores) was “abolished” and the “neoplastic cores with some level of positive membrane staining” value ([1]; out of the 51 neoplastic cores on the TMA) was 45. The “% STn expression” value [2] was 69.9%, the “% STn expression” value [3] was 67.7% and the “% STn expression” value [4] was 30.0%.
